For 1 molecule, ELISA reading and mAb-HRP binding after blocking by unlabeled mAb results are on record in patent publication US20160304625A1.

Assay [1] concerns the target mIgM proximal domain peptide conjugated to keyhole limpet hemocyanin (human). In words: ELISA, KLH-PDm. On the technique in general: ELISA stands for enzyme-linked immunosorbent assay.
Assay [2] shares this target. In words: ELISA direct binding, mIgM-PD-KLH.
Assay [3] shares this target. In words: competition ELISA on KLH-mIgM-PD, competitor unlabeled mAb 1.
For assay [4] the target is unchanged. In words: competition ELISA on KLH-mIgM-PD, competitor unlabeled mAb 2.
The target is the same in assay [5]. In words: competition ELISA on KLH-mIgM-PD, competitor unlabeled mAb 3.
Assay [6] shares this target. In words: competition ELISA on KLH-mIgM-PD, competitor unlabeled mAb 4.
For assay [7] the target is unchanged. In words: competition ELISA on mIgM-PD-KLH, competitor unlabeled mAb 1.
For assay [8] the target is unchanged. In words: competition ELISA on mIgM-PD-KLH, competitor unlabeled mAb 2.
Assay [9] has the same target. In words: competition ELISA on mIgM-PD-KLH, competitor unlabeled mAb 3.
Assay [10] has the same target. In words: competition ELISA on mIgM-PD-KLH, competitor unlabeled mAb 4.

B1: monoclonal antibody mAb4-2b (antibody, mouse IgG1, V domains shown)
VH: EVQLEESGAELVKPGASLKLSCKASGYTFTSYWMNWVKQRPGQGLEWIGIIHPNSGSTNYNEKFKTKATLTVDKSSSTAYMQLSSLTSEDSAVYYCARTRGNYGMDYWGQGTSVTVSS
VL: DIVMTQSHKFMSTSVGDRVSITCKASQDVSTAVAWYQQKPGQSPTLLIYSASYRNTGVPDRFTGSGSGTDFTFTISSVQAEDLAVYYCQQHFSIPPLTFGAGTKLELKR
With B1, the values for the ELISA reading in [1] and in assay [2] were 0.9 and 0.5, respectively. The mAb-HRP binding after blocking by unlabeled mAb is 74 in [3]; 68 in assay [4]; 72 in [5]; 14 in assay [6]; 52 in assay [7]; 71 in assay [8]. The mAb-HRP binding after blocking by unlabeled mAb in assay [9] turned out to be 62; in assay [10] it was 9.
